{
  "source": "patent US20050042720A1",
  "about": "“Novel promiscuous G alpha protein mutants and their use” (7TM Pharma A/S, priority 2003, published 2005)",
  "assay_type_in_all_cases": "cell-based",
  "key": {"[1]": {"system": "phospholipase Cβ", "assay": "PI-hydrolysis assay in COS7 cells cotransfected with receptor and mutant/chimeric Gαq subunits (Example 3)", "from_the_text": "Murine wild type Gαq was cloned from mouse brain by RT-PCR and inserted into the BamHI-NslI-sites of pcDNA1.1. All wild type and mutant Gα subunits contained an internal hemagglutinin epitope tag DVPDYA (Wedegaertner et al., 1993) replacing Gαqwt residues 125-130. To create the C-terminally modified Gαqi5 subunit, in which the last five aa of wt Gαq were replaced with the corresponding Gαi sequence, a 175-bp BglII-NslI fragment was replaced, in a two piece ligation, with a synthetic DNA fragment, containing the desired codon changes. Gαqs5/z5 were prepared in an analogous fashion. GαqG66x mutants were prepared with the Stratagene quick change mutagenesis kit according to the manufacturer's instructions. To generate GαqG66Xi5/s5/z5(X=D,V,N,K), a 175 bp BglII-NsiI fragment was removed from GαqG66X and replaced with the corresponding BglII-NsiI fragment of Gαqi5 and Gαqs5/z5, respectively. The correctness of all PCR-derived sequences was verified by sequencing in both directions. […]\n18-24 h after transfections cells were splitted into 35-mm dishes in culture medium supplemented with 3 μCi/ml [3H]myo-inositol (20 Ci/mmol; Amersham). […] Cells were then stimulated in the same buffer with the appropriate agonist ligands for 1 h (37° C.), and increases in intracellular inositolphosphate determined by anion exchange chromatography as described (Kostenis et al., 1997)."}, "[2]": {"system": "chemokine CXCR1 and dopamine D2 receptor", "assay": "Calcium mobilization assay in COS7 cells cotransfected with receptor and Gα16 constructs", "conditions": "CXCR1 (interleukin 8) and D2 ((−)quinpirole) receptors, FIG. 13", "protocol": "24 h after transfection, COS7 cells were split into 96 well plates at a density of ˜30,000 cells per well. 18-24 h later cells were loaded with a calcium sensitive dye (calcium assay kit from Molecular devices) for 1 h (37 C, 5% CO2) and then for 1 h at room temperature. Ligands were transferred to the cell plate from the sample plate using the Novostar's integrated pipette. To obtain the specific fluorescence response, baseline fluorescence counts before addition of ligands were subtracted from the peak of the calcium response Specific responses were used to plot the concentration response curve.\nMurine Wild type Gα16 was cloned as described above. […] was prepared with the Stratagene quick change mutagenesis kit according to the manufacturers instructions. The correctness of all PCR-derived sequences was verified by sequencing in both directions.\nCOS7 cells were grown and transfected as described above.\n24 h after transfection, COS7 cells were split into 96 well plates at a density of […] cells per well. 18-24 h later cells were loaded with a calcium sensitive dye (calcium assay kit from Molecular devices) for 1 h (37 C, 5% CO2) and then for 1 h at room temperature. […] To obtain the specific fluorescence response, baseline fluorescence counts before addition of ligands were subtracted from the peak of the calcium response. […]"}, "[3]": {"system": "phospholipase Cβ", "assay": "Basal IP formation in COS7 cells transfected with Gα subunit alone (constitutive activity)", "conditions": "no receptor, no ligand, FIG. 6", "protocol": "Basal IP3 formation was determined in COS7 cells transiently transfected with vector DNA, Gαqwt, GαqG66D and the constitutively active Gα15Q212L mutant as described in detail in the Examples. Data represent mean values±SEM of 4 independent experiments performed in duplicate.\nCOS7 cells were grown in Dulbecco's modified Eagles medium supplemented with 10% (vol/vol) fetal calf serum, Penicillin-Streptomycin (10000 IU/ml-10000 μg/ml) and 2 mM L-Glutamin in a humidified 5% CO2 incubator. For transfections, 1×10^6 cells were seeded into 100-mm dishes. About 24 h later, cells were cotransfected with the indicated G protein and receptor constructs (1:1 ratio) by using the Fugene transfection reagent as per manufacturer's instructions.\n18-24 h after transfections cells were split into 35 mm dishes in culture medium supplemented with 3 μCi/ml [3H]myo-inositol (20 Ci/mmol: Amersham). […] Cells were then stimulated in the same buffer with the appropriate agonist ligands for 45 min (37° C.), and increases in intracellular inositolphosphate determined by anion exchange chromatography as described (Kostenis et al., 1997)\nTo test whether the mutant Gαq subunit differs from Gαq wt in its ability to signal to phospholipase Cβ, plasmids encoding the respective cDNAs were transiently transfected into COS7 cells and IP1 accumulation was measured."}},
  "data": [
    {"molecule": "GαqG66Di5: Gαq combining G66D linker I mutation with C-terminal five amino acids of Gαi; SEQ ID No. 6 (protein, listed as Mus musculus, (66)..(66) Xaa is selected from the group consisting of Asp, Val, Asn and Lys) MTLESIMACCLSEEAKEARRINDEIERHVRRDKRDARRELKLLLLGTGESGKSTFIKQMRIIHGSXYSDEDKRGFTKLVYQNIFTAMQAMIRAMDTLKIPYKYEHNKAHAQLVREVDVEKVSAFENPYVDAIKSLWNDPGIQECYDRRREYQLSDSTKYYLNDLDRVADPSYLPTQQDVLRVRVPTTGIIEYPFDLQSVIFRMVDVGGQRSERRKWIHCFENVTSIMFLVALSEYDQVLVESDNENRMEESKALFRTIITYPWFQNSSVILFLNKKDLLEEKIMYSHLVDYFPEYDGPQRDAQAAREFILKMFVDLNPDSDKIIYSHFTCATDTENIRFVFAAVKDTILQLNLKDCGLF", "values": [
      {"measurement": "agonist-induced IP3 / PLCβ activity", "setting": "[1]; Gi/o coupled receptors CXCR2, CCR5, SSTR1, KOR, GPR7, HM74a, NPY4, M2, P2Y12, FIG. 11", "value": "robust IP3 increases exceeding those observed upon coexpression with the C-terminal or the G66D mutant alone"}
    ]},
    {"molecule": "GαqG66Ds5: Gαq combining G66D linker I mutation with C-terminal five amino acids of Gαs; SEQ ID No. 7 (protein, listed as Mus musculus, (66)..(66) Xaa is selected from the group consisting of Asp, Val, Asn and Lys) MTLESIMACCLSEEAKEARRINDEIERHVRRDKRDARRELKLLLLGTGESGKSTFIKQMRIIHGSXYSDEDKRGFTKLVYQNIFTAMQAMIRAMDTLKIPYKYEHNKAHAQLVREVDVEKVSAFENPYVDAIKSLWNDPGIQECYDRRREYQLSDSTKYYLNDLDRVADPSYLPTQQDVLRVRVPTTGIIEYPFDLQSVIFRMVDVGGQRSERRKWIHCFENVTSIMFLVALSEYDQVLVESDNENRMEESKALFRTIITYPWFQNSSVILFLNKKDLLEEKIMYSHLVDYFPEYDGPQRDAQAAREFILKMFVDLNPDSDKIIYSHFTCATDTENIRFVFAAVKDTILQLNLKQYELL", "values": [
      {"measurement": "response (stimulation of PLCβ) versus individual mutants", "setting": "[1]; coexpressed non-Gq-selective receptor, Gs-linked GLP1, GIP, DP, adrenergic β2 (FIG. 12)", "value": "robust response exceeding the response observed upon coexpression with the C-terminal or the GαwG66D mutant alone"}
    ]},
    {"molecule": "Gα16G69D: Gα16 with glycine 69 to aspartate mutation in linker I; SEQ ID No 5 (protein, listed as Homo sapiens, (69)..(69) Xaa is selected from the group consisting of Asp, Val, Asn and Lys) MARSLTWRCCPWCLTEDEKAAARVDQEINRILLEQKKQDRGELKLLLLGPGESGKSTFIKQMRIIHGAXYSEEERKGFRPLVYQNIFVSMRAMIEAMERLQIPFSRPESKHHASLVMSQDPYKVTTFEKRYAAAMQWLWRDAGIRACYERRREFHLLDSAVYYLSHLERITEEGYVPTAQDVLRSRMPTTGINEYCFSVQKTNLRIVDVGGQKSERKKWIHCFENVIALIYLASLSEYDQCLEENNQENRMKESLALFGTILELPWFKSTSVILFLNKTDILEEKIPTSHLATYFPSFQGPKQDAEAAKRFILDMYTRMYTGCVDGPEGSKKGARSRRLFSHYTCATDTQNIRKVFKDVRDSVLARYLDEINLL", "values": [
      {"measurement": "agonist-induced intracellular calcium mobilization", "setting": "[2]", "value": "significantly increased"}
    ]},
    {"molecule": "Gα16: Murine wild type Gα16 (protein, UniProt P30678 1-374, looked up) Guanine nucleotide-binding …: MARSLTWGCCPWCLTEEEKTAARIDQEINRILLEQKKQEREELKLLLLGPGESGKSTFIKQMRIIHGVGYSEEDRRAFRLLIYQNIFVSMQAMIDAMDRLQIPFSRPDSKQHASLVMTQDPYKVSTFEKPYAVAMQYLWRDAGIRACYERRREFHLLDSAVYYLSHLERISEDSYIPTAQDVLRSRMPTTGINEYCFSVKKTKLRIVDVGGQRSERRKWIHCFENVIALIYLASLSEYDQCLEENDQENRMEESLALFSTILELPWFKSTSVILFLNKTDILEDKIHTSHLATYFPSFQGPRRDAEAAKSFILDMYARVYASCAEPQDGGRKGSRARRFFAHFTCATDTQSVRSVFKDVRDSVLARYLDEINLL", "values": [
      {"measurement": "agonist-induced intracellular calcium mobilization", "setting": "[2]", "value": "gain the ability to stimulate calcium mobilization"}
    ]},
    {"molecule": "Gα15Q212L: GTPase defective, constitutively active Gα15 mutant replacing Glutamine 212 by Leucine (protein, UniProt P30678 1-374, looked up, variant Q212L) Guanine nucleotide-binding …: MARSLTWGCCPWCLTEEEKTAARIDQEINRILLEQKKQEREELKLLLLGPGESGKSTFIKQMRIIHGVGYSEEDRRAFRLLIYQNIFVSMQAMIDAMDRLQIPFSRPDSKQHASLVMTQDPYKVSTFEKPYAVAMQYLWRDAGIRACYERRREFHLLDSAVYYLSHLERISEDSYIPTAQDVLRSRMPTTGINEYCFSVKKTKLRIVDVGGLRSERRKWIHCFENVIALIYLASLSEYDQCLEENDQENRMEESLALFSTILELPWFKSTSVILFLNKTDILEDKIHTSHLATYFPSFQGPRRDAEAAKSFILDMYARVYASCAEPQDGGRKGSRARRFFAHFTCATDTQSVRSVFKDVRDSVLARYLDEINLL", "values": [
      {"measurement": "basal IP1 accumulation / ability to activate PLCβ (constitutive activity)", "setting": "[3]", "value": "robust IP1 increase"}
    ]}
  ]
}
